Source: US20240041976A1, “COMPOSITION AND USE” (priority 2020, published 2024)
No end group written: not given here.

Columns and labels:
S. haemolyticus 4070 = experiment: microbe, parasite or virus in culture
[1] = tested on: S. aureus ATTC 10832 biofilm; experiment: Biofilm-oriented antimicrobial test (BOAT), MIC50 in biofilms; type: cell-based, Staphylococcus aureus
Description: (§1) Synergistic interactions between antimicrobials were determined using the fractional inhibition concentration (FIC). The FIC values were calculated as follows: the sum of the FIC =FICa+FICb+FICc, where the FICa means MIC of A in combination/MIC of A alone, FICb means MIC of B in combination/MIC of B, and FICc means MIC of C in combination/MIC of C alone. Effects were considered as synergistic if FIC was ≤0.5 for two components mixture and ≤0.75 for three components mixture.
(§2) Staphylococcus aureus strains were inoculated in 5 ml of TSB and incubated O/N at 37° C. Ten μl of the O/N cultures were then inoculated in 90 μl of TSB supplemented with 1% glucose and 1% NaCl (TSB-GN) in the appropriate wells of a 96-well microtiter plate (Sarstedt) to a final volume of 100 μl. The plates were then incubated at 37° C. for 24 h. After the incubation, the presence of the biofilm at the bottom of the wells was assessed visually.
(§3) The BOAT assay was performed as described previously (Gronseth et al., 2017, Int. J. Pediatr. Otorhinolaryngol., Vol. 103, p 58-64) with some modifications. The serial dilutions of the antimicrobials were prepared in challenge plates as follows: 175 μl of TSB were transferred in each row of a 96-well microtiter plate, except for the first row, according to the number of microbial strains to treat. In the first row of the plate, the antimicrobials were diluted to their respective working concentrations in a final volume of 350 μl of TSB. From the first row, 175 μl of the antimicrobial dilutions were then transferred to the second row of the plate and further serially diluted to the bottom of the plate. The same procedure was followed to prepare the controls, except that instead of the antimicrobials an equivalent volume of the respective vehicles were used. The biofilms were allowed to form for 24 h and then washed twice with 100 μl of sterile saline buffer and a total of 150 μl of the antimicrobial and control dilutions were transferred from the challenge plate to the corresponding wells of the biofilm plate. The challenged biofilms were then incubated for an additional 24 h at 37° C. After the challenge period, the antimicrobial dilutions were removed and the biofilms were carefully washed three times with 150 μl of sterile saline buffer. A total of 100 μl of TSB supplemented with 0.025% of triphenyl-tetrazolium chloride (TTC, Sigma) were then added to each well of the plate and further incubated at 37° C. for 5h. The results were then assessed by monitoring the development (or not) of red formazan (red colour), denoting the retention of metabolic activity by bacterial cells (Moussa et al., 2013, J. Mycol., Vol. 2013; Perez et al., 2010, Lett. Appl. Microbiol., Vol. 51, p 331-337). The medium was then removed and 200 μl of an ethanol:acetone (70:30) mixture was added to the wells and incubated O/N in order to extract the red formazan. The amount of extracted dye, reflecting the degree of bacterial cell metabolic activity, was then quantified by spectrophotometric readings at 492 nm.

[2] = tested on: S. aureus ATTC 29213 biofilm; experiment: as above; type: cell-based, Staphylococcus aureus
Description: as §1, §2, §3

[3] = tested on: S. aureus USA 300 biofilm; experiment: as above; type: cell-based, Staphylococcus aureus
Description: as §1, §2, §3

[4] = tested on: S. aureus ATTC 33591 biofilm; experiment: as above; type: cell-based, Staphylococcus aureus
Description: as §1, §2, §3

S. aureus Newman biofilm = experiment: as above; type: cell-based, Staphylococcus aureus
Description: as §1, §2, §3

S.a. 3255 biofilm = experiment: as above; type: cell-based, Staphylococcus aureus
Description: as §1, §2, §3

[5] = 4070, 24 h, K1-EJ + GarKS + MP1
[6] = 4070, 48 h, K1-EJ + GarKS + MP1
[7] = garvicin KS + micrococcin P1 + penicillin G

“MKFKFNPTGTIVKKLTQYEINWYKQQYGRYPWERPVA [Hybrid K1-EJ]” showed an MIC (S. haemolyticus 4070; 4070, 5 h) of 0.78 µg/mL, an MIC (S. haemolyticus 4070; 4070, 24 h) of over 100 µg/mL and an MIC (S. haemolyticus 4070; 4070, 48 h) of over 100 µg/mL. For the same molecule, the “MIC of the component in combination” value (S. haemolyticus 4070; 4070, 5 h, K1-EJ + GarKS) was 0.72 µg/mL, the “MIC of the component in combination” value (S. haemolyticus 4070; 4070, 5 h, K1-EJ + GarKS + MP1) was 0.32 µg/mL and the “MIC of the component in combination” value (S. haemolyticus 4070; 4070, 5 h, K1-EJ + MP1) was 0.2 µg/mL. For the same molecule, the “MIC of the component in combination” value (S. haemolyticus 4070; 4070, 24 h, K1-EJ + GarKS) was 3.3 µg/mL, the “MIC of the component in combination” value (S. haemolyticus 4070; [5]) was 2.8 µg/mL and the “MIC of the component in combination” value (S. haemolyticus 4070; 4070, 24 h, K1-EJ + MP1) was 2.8 µg/mL. For the same molecule, the “MIC of the component in combination” value (S. haemolyticus 4070; 4070, 48 h, K1-EJ + GarKS) was 6.3 µg/mL, the “MIC of the component in combination” value (S. haemolyticus 4070; [6]) was 5.8 µg/mL and the “MIC of the component in combination” value (S. haemolyticus 4070; 4070, 48 h, K1-EJ + MP1) was 6 µg/mL.

B1: Garvicin KS: three-peptide leaderless bacteriocin (GarA, GarB, GarC; SEQ ID NO:6-8), peptides synthesized (peptide, listed as Lactococcus garvieae)
chain 1: MGAIIKAGAKIVGKGVLGGGASWLGWNVGEKIWK
chain 2: MGAIIKAGAKIIGKGLLGGAAGGATYGGLKKIFG
chain 3: MGAIIKAGAKIVGKGALTGGGVWLAEKLFGGK
For B1, the “MIC of the component in combination” value (S. haemolyticus 4070; 4070, 5 h, GarKS + MP1) was 0.2 µg/mL, the “MIC of the component in combination” value (S. haemolyticus 4070; 4070, 5 h, K1-EJ + GarKS) was 0.72 µg/mL and the “MIC of the component in combination” value (S. haemolyticus 4070; 4070, 5 h, K1-EJ + GarKS + MP1) was 0.32 µg/mL. The MIC (S. haemolyticus 4070; 4070, 5 h, individual component) was 12 µg/mL, the “MIC of the component in combination” value (S. haemolyticus 4070; 4070, 24 h, GarKS + MP1) was 3.3 µg/mL and the “MIC of the component in combination” value (S. haemolyticus 4070; 4070, 24 h, K1-EJ + GarKS) was 3.3 µg/mL. For the same molecule, the “MIC of the component in combination” value (S. haemolyticus 4070; [5]) was 2.8 µg/mL, the MIC (S. haemolyticus 4070; 4070, 24 h, individual component) was 48 µg/mL and the “MIC of the component in combination” value (S. haemolyticus 4070; 4070, 48 h, GarKS + MP1) was 6.3 µg/mL. For the same molecule, the “MIC of the component in combination” value (S. haemolyticus 4070; 4070, 48 h, K1-EJ + GarKS) was 6.3 µg/mL, the “MIC of the component in combination” value (S. haemolyticus 4070; [6]) was 5.8 µg/mL and the MIC (S. haemolyticus 4070; 4070, 48 h, individual component) was 51 µg/mL. The “MIC50 of the component in combination” value ([1]; garvicin KS + micrococcin P1) was 1250 µg/mL, the “MIC50 of the component in combination” value [1, 7] was 160 µg/mL and the “MIC50 of the component in combination” value ([1]; garvicin KS + penicillin G) was 310 µg/mL. The MIC50 ([1]; individual component) was 2500 µg/mL, the “MIC50 of the component in combination” value ([2]; garvicin KS + micrococcin P1) was 1250 µg/mL and the “MIC50 of the component in combination” value [2, 7] was 310 µg/mL. The “MIC50 of the component in combination” value ([2]; garvicin KS + penicillin G) was 1250 µg/mL, the MIC50 ([2]; individual component) was 1250 µg/mL and the “MIC50 of the component in combination” value ([3]; garvicin KS + micrococcin P1) was 5000 µg/mL. The “MIC50 of the component in combination” value [3, 7] was 5000 µg/mL, the “MIC50 of the component in combination” value ([3]; garvicin KS + penicillin G) was over 5000 µg/mL and the MIC50 ([3]; individual component) was 2500 µg/mL. The “MIC increase compared to the planktonic state” value ([4]; ATCC 33591 biofilm) was “over 100 fold”, the “MIC50 of the component in combination” value ([4]; ATTC 33591, biofilm, garvicin KS + micrococcin P1) was over 5000 µg/mL and the “MIC50 of the component in combination” value ([4]; ATTC 33591, biofilm, garvicin KS + micrococcin P1 + penicillin G) was 5000 µg/mL. The “MIC50 of the component in combination” value ([4]; ATTC 33591, biofilm, garvicin KS + penicillin G) was over 5000 µg/mL, the MIC50 ([4]; ATTC 33591, biofilm, individual component) was over 5000 µg/mL and the “MIC50 of the component in combination” value (S. aureus Newman biofilm; garvicin KS + micrococcin P1) was 1250 µg/mL. For the same molecule, the “MIC50 of the component in combination” value (S. aureus Newman biofilm; [7]) was 1250 µg/mL, the “MIC50 of the component in combination” value (S. aureus Newman biofilm; garvicin KS + penicillin G) was 630 µg/mL and the MIC50 (S. aureus Newman biofilm; individual component) was 1250 µg/mL. For the same molecule, the “MIC50 of the component in combination” value (S.a. 3255 biofilm; garvicin KS + micrococcin P1) was 3.1 × 10^−1. mg/ml, the “MIC50 of the component in combination” value (S.a. 3255 biofilm; [7]) was 0.31 mg/mL and the “MIC50 of the component in combination” value (S.a. 3255 biofilm; garvicin KS + penicillin G) was 0.31 mg/mL. For the same molecule, the MIC50 (S.a. 3255 biofilm; individual component) was 1250 µg/mL.
